Results taken from patent publication US20230272054A1, “COMBINATION THERAPIES FOR THE TREATMENT AND PREVENTION OF BIOFILMS” (priority 2020, published 2023).
Entries after “also recorded” stand apart in the source; their conditions may differ. Read-outs that look alike come from different tables or passages of the source.

What was measured:
[1] = target: T1, HUNTHI, native histone-like protein HU (DNABII protein) of nontypeable Haemophilus influenzae (nontypeable Haemophilus influenzae …, UniProt P43722 1-90); assay: SPR (Biacore); mHMGB1 immobilised, HUNTHI injected; the text value differs from Table 1 (103)
T1 sequence: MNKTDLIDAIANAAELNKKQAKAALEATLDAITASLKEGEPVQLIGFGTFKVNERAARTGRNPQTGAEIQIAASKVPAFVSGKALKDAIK

[2] = target: T2, IHFNTHI, native integration host factor (DNABII protein) of nontypeable Haemophilus influenzae (nontypeable Haemophilus influenzae …, UniProt P43723 1-96; P43724 1-94)
T2 sequence 1: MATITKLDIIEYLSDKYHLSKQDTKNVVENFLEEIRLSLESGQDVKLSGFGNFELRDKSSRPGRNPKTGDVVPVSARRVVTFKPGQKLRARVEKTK
T2 sequence 2: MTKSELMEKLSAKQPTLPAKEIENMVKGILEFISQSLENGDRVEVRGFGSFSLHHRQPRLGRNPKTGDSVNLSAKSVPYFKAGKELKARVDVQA

[3] = target: T1, HUNTHI, native histone-like protein HU …
HJ DNA = assay: Stabilization of HJ DNA at RT or 55° C, non-denaturing PAGE; assay type: binding; conditions: 32P HJ DNA, 25-500 nM protein, 10 min
Procedure: 5′ end-labeled ^32P HJ DNA was incubated with increasing concentrations (25-500 nM) of IHF (FIG. 8A), rHMGB1 (FIG. 8B) or RuvA (FIG. 8C) either at room temperature (RT) or at 55° C. for 10 min, then resolved on a 6% non-denaturing PAGE. Asterisk indicates melted oligos and arrows indicate DNA-protein complex. […] This outcome contrasts with that observed with both IHF and the prototypic HJ DNA binding protein, RuvA.
To test the hypothesis, HJ DNA was incubated with either HMGB1, the DNABII protein IHF, or the prototypic HJ DNA binding protein, RuvA at room temperature (RT) or 55° C. (melting temperature of HJ DNA) and resolved the complexes by non-denaturing polyacrylamide gel electrophoresis (PAGE). […] (FIG. 8) as indicated by the decrease in abundance of the shifted HJ DNA-HMGB1 complex (arrow) and the concomitant increase in the constituent melted oligos (asterisk).
Electrophoretic mobility shift assay (EMSA): EMSA was performed as previously described (Devaraj et al., 2019).

S. aureus biofilms = assay: Disruption of 24 h S. aureus biofilms in vitro (CLSM, COMSTAT average thickness); conditions: 24 h biofilms, 16 h; non-bactericidal dose
[4] = system: biofilms formed by UPEC, B. cenocepacia, NTHI, Enterobacter spp, S. aureus, K. pneumoniae, A. baumanii, P. aeruginosa, E. faecium; assay: Disruption of 24 h bacterial biofilms in vitro by HMGB1 isoforms (LIVE/DEAD stain, CLSM, COMSTAT average thickness); conditions: 24 h biofilms of nine pathogens; 200 nM protein, 16 h (S. aureus 800 nM rHMGB1; E. faecium 800 nM, 1 h)
[5] = system: eDNA lattice within K. pneumoniae biofilms; assay: Visualization of eDNA lattice structure within K. pneumoniae biofilms (immunofluorescence, CLSM); assay type: cell-based, Klebsiella pneumoniae; conditions: 24 h K. pneumoniae biofilms, 200 nM protein, 16 h
From the text: Per the model as disclosed herein, HMGB1 would compete with DNABII proteins, wherein instead of stabilization, HMGB1 would de-stabilize these HJ-like structures and consequently disrupt the biofilm.

UPEC biofilms [6] = assay: Disruption of 24 h UPEC biofilms in vitro (CLSM, COMSTAT average thickness); conditions: 24 h UPEC biofilms, indicated concentrations of rHMGB1
[7] = Inflammatory cell recruitment into lungs of B. cenocepacia-challenged mice (H&E, flow cytometry of BAL); assay type: in vivo, C57BL/6 mice; conditions: B. cenocepacia-challenged mice, 0.2 nmol, 72 hpi
neutrophils in BAL = assay: as above; assay type: in vivo, C57BL/6 mice; conditions: B. cenocepacia-infected and simultaneously treated, 0.2 nmol, 18 hpi
Human neutrophils = assay: NET formation by neutrophils incubated with HMGB1 isoforms (CLSM); assay type: cell-based; conditions: 200 nM protein, 3.5 h
Procedure: Neutrophils were fixed, then labeled as described above to visualize the NETs.
Visualization of NETs structure upon incubation of neutrophils with various isoforms of HMGB1: Human neutrophils were isolated from blood using the EASYSEP™ isolation kit (Stemcell Technologies Inc.). […] NETs were fixed in formalin, blocked with 10% normal goat serum (Life Technologies), and labeled with α-dsDNA monoclonal antibody (1 μg), and α-neutrophil elastase polyclonal antibody (1 μg) or naive rabbit and mouse isotype controls (1 μg) in 200 μl PBS for 16 h hours at 4° C. NETs were washed with PBS and incubated for 1 h with 1:200 dilution goat α-rabbit IgG conjugated to ALEXAFLUOR® 594, goat α-mouse IgG conjugated to ALEXAFLUOR® 488, and 1:500 dilution wheat germ agglutinin conjugated to ALEXAFLUOR® 350 (PMN membrane stain). NETs were imaged with a Zeiss LSM 800 confocal microscope (Carl Zeiss Inc.) and rendered with Zeiss Zen software.

B. cenocepacia = assay: Murine model of lung infection by B. cenocepacia, bacterial burden; conditions: 0.2 nmol i.t. at 24 hpi; 72 hpi; α-EF-Tu labeling
Procedure: Intratracheal challenge of the murine lung with B. cenocepacia and treatment with HMGB1 isoforms: B. cenocepacia strain K56-2, was cultured in LB broth (Difco, Md.) at 37° C. overnight at 200 rpm. Bacterial concentration was adjusted before each experiment based on OD at 600 nm. C57BL/6 mice were infected intratracheally (i.t.) with 10^7 colony forming units (CFU) of B. cenocepacia. […] Animals were euthanized 24 or 48 hpi, and bronchoalveolar lavage (BAL) was collected with 1 ml of PBS plus 1 mM EDTA. […] The slides were permeabilized with 0.5% Triton X-100 for 10 minutes, blocked with 10% normal goat serum (Abcam) for 30 minutes and stained with a monoclonal antibody against E. coli Elongation Factor-Tu (α-EF-Tu; cross reacts with B. cenocepacia) (LSBio) overnight to label B. cenocepacia. The samples were then stained with goat α-mouse IgG Alexa Fluor 488 (Abcam) for 1 h at RT, mounted with fluoroshield media with DAPI (Abcam), visualized via the Nikon Eclipse Ti at 40× magnification (Nikon Instrument Inc. Americas) and analyzed by ImageJ software (NIH). To enumerate bacterial burden, the animals were euthanized 18 or 72 hpi, bronchoalveolar lavage was collected with 1 ml of PBS plus 1 mM EDTA, an aliquot of BAL was serially diluted and plated on LB agar. […] Neither animals nor samples were excluded from evaluation in any study.

E. faecium biofilms = assay: Disruption of 24 h E. faecium biofilms in vitro (CLSM, COMSTAT average thickness); conditions: 24 h biofilms, 1 h incubation; non-bactericidal dose
[8] = system: pro-inflammatory and anti-inflammatory cytokines; assay: Quantitation of cytokines in middle ear fluids (cytometric bead array); assay type: in vivo, chinchilla (Chinchilla lanigera); conditions: six days after NTHI challenge, one day after completion of treatment
Procedure: Quantitation of cytokines in middle ear fluids: To quantitate cytokines in middle ear fluids (MEF), a BD™ Cytometric Bead Array was performed with fluids collected at the time of animal sacrifice. With BD™ human-specific Flex Sets, each MEF was individually examined for relative quantity of IL-1β, IL-4, IL-6, IL-8, IL-10, IL12-p70, IL-13, IL-17A, TNF or IFNγ according to manufacturer's instructions. MEFs from each animal were assayed individually. Data were captured on a BD ACCURI™ C6 cytometer (BD Biosciences) and analyzed with FlowJo software (FlowJo, LLC). The concentration of cytokines in each MEF was determined using a standard curve and calculated using GraphPad Prism software.

TNF-α = assay: Mouse model of endotoxemia, serum TNF-α by ELISA; assay type: in vivo, C57BL/6 mice; conditions: i.p. 0.2 nmol endotoxin-free rHMGB1 or LPS 5 mg/kg; 24 h
Procedure: Since excess HMGB1 can mediate dysregulated host response to infection associated with septic shock, the ability of rHMGB1 (0.2 nmol; the concentration used to treat in vivo biofilms) to induce septic shock was evaluated in mice. Mice were injected i.p. with either 0.2 nmol endotoxin-free rHMGB1, lipopolysaccharide (LPS; 5 mg/kg) or both, then monitored for signs of septic shock for 24 hours.
Mouse model of endotoxemia: C57BL/6 mice were injected i.p. with 5 mg/kg of E. coli lipopolysaccharide (Sigma), or 0.2 nmol rHMGB1 alone or in combination with LPS. Animals were euthanized 24 h later, serum was collected, and TNF-α was quantified by ELISA (ThermoFisher).

UPEC biofilms [9] = conditions: 24 h UPEC biofilms, rHMGB1 200 nM, 16 h

B1: mHMGB1 (C45S), recombinant human HMGB1 with an engineered single amino acid mutation C45S (other)
chain: MGKGDPKKPRGKMSSYAFFVQTCREEHKKKHPDASVNFSEFSKKSSERWKTMSAKEKGKFEDMAKADKARYEREMKTYIPPKGETKKKFKDPNAPKRPPSAFFLFCSEYRPKIKGEHPGLSIGDVAKKLGEMWNNTAADDKQPYEKKAAKLKEKYEKDIAAYRAKGKPDAAKKGVVKAEKSKKKKEEEEGEEDEEDEEEEEDEEDEDEEEDDDDE
notes: also called modified HMGB1
Kd [1]: 0.104 µM
Kd [2]: 0.579 µM
Kd [3]: 0.103 µM

B2: rHMGB1: recombinant HMGB1 derived from a human, expressed and purified in E. coli, SEQ ID NO: 51; comparator to mHMGB1 (protein, listed as Homo sapiens)
chain: MGKGDPKKPRGKMSSYAFFVQTCREEHKKKHPDASVNFSEFSKKCSERWKTMSAKEKGKFEDMAKADKARYEREMKTYIPPKGETKKKFKDPNAPKRPPSAFFLFCSEYRPKIKGEHPGLSIGDVAKKLGEMWNNTAADDKQPYEKKAAKLKEKYEKDIAAYRAKGKPDAAKKGVVKAEKSKKKKEEEEGEEDEEDEEEEEDEEDEDEEEDDDDE
stabilization of HJ DNA at 55° C (melting temperature of HJ DNA) (HJ DNA): unstable at 55 °C
stabilization of HJ DNA at 55° C (melting temperature of HJ DNA) (HJ DNA; listed as HMGB1): unable to efficiently stabilize the HJ DNA at 55 °C
HJ DNA-protein complex at room temperature (RT) (HJ DNA): stable at RT
HJ DNA-protein complex at room temperature (RT) (HJ DNA; listed as HMGB1): bound to HJ DNA to form stable complexes at RT
dose required to achieve a similar reduction in biofilm average thickness, S. aureus (S. aureus biofilms): 800 nM
biofilm average thickness compared to control [4]: significantly disrupted bacterial biofilms; also recorded: significant reduction in biofilm average thickness
biofilm bacteria (FilmTracer FM 4-64) [5]: substantial reduction in biofilm bacteria
web-like eDNA lattice structure within biofilm [5]: disruption of the web-like structure; also recorded: notably disrupted
dose dependence of UPEC biofilm disruption (UPEC biofilms [6]): dose-dependent disruption; also recorded: dose-dependent activity
infiltration of inflammatory cells into lungs (H&E) [7]: significant infiltration of inflammatory cells
neutrophils in BAL (flow cytometry) (neutrophils in BAL): significantly greater number of neutrophils in BAL compared to the control
induction of NET formation by neutrophils (Human neutrophils): intertwined NETs specifically formed; also recorded: modest effect on induction of NETs
B. cenocepacia stained within the lung tissue (B. cenocepacia): significantly reduced bacterial load
dose required to achieve a similar reduction in biofilm average thickness, E. faecium (E. faecium biofilms): 800 nM
IL-1β in middle ear fluids [8]: significantly elevated concentration; also recorded: statistically significant increase
IL-17A in middle ear fluids [8]: significantly elevated concentration; also recorded: statistically significant increase
serum TNF-α (septic shock) (TNF-α): did not induce septic shock; also recorded: did not induce detectable TNF-α
bacteria in the planktonic state (UPEC biofilms [9]): statistically significant increase in the planktonic bacteria
biofilm-resident bacteria (UPEC biofilms [9]): statistically significant decrease in biofilm-resident bacteria
